The nature of this data set: yeast display, Sf9 membrane polyspecificity reagent, FACS + sequencing; frameworks hold sequencing errors. In short, it runs like this: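 Genes from sorted yeast were amplified by colony PCR, read by MiSeq 2 × 250 sequencing and filtered on CDR length. These cells carried a synthetic nanobody library in Saccharomyces cerevisiae BJ5465 and were sorted by FACS into low and high (top ~1%) gates on anti-HA and streptavidin fluorescence. Polyreactivity is labelled according to the gate of origin.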
Consider “QVQLVESGGGLVQAGGSLRLSCAASGRILSRYAMGWYRQAPGKERELVAAINKSGGSTYYADSVKGRFTISRDNAKNTVYLQMNSLKPEDTAVFYCNAVYYWYKGDYWGQGTQVTVSS”, for which the “polyreactivity (PSR sort gate)” value is “high polyreactivity”.

“QVQLVESGGGLVQAGGSLRLSCAASGRILSRYVMGWYRQAPGKERELVAAISGRATSTYYADSVKGRFTISRDNAKNTVYLQMNSLKPEDTAVYYCATGYKTYAVTLYDYWGQGTQVTVSS”: the “polyreactivity (PSR sort gate)” value is recorded as “high polyreactivity”.

Regarding “QVQLVESGGGLVQAGGSLRLSCAASGRILSYYAMGWYRQAPGKERELVAVIRRGASTYADSVKGRFTISRDNAKNTVYLQMNSLKPEDTAVYYCNAERVVGLSATKYGYWGQGTQVTVSS”, the “polyreactivity (PSR sort gate)” value is listed as “low polyreactivity”.

As for “QVQLVESGGGLVQAGGSLRLSCAASGRILTFYGMGWYRQAPGKERELVAAISNGGSTYYADSVKGRFTSSRDNAKNTVYLQMNSLKPEDTAVYYCAKRILTAPRRNSGYDYWGPGTQVTVSS”, the “polyreactivity (PSR sort gate)” value is given as “low polyreactivity”.

As to “QVQLVESGGGLVQAGGSLRLSCAASGRILTGYAMGLYRQAPGKEREFVASITGSGAITNYADSVKGRFTITRDNAKNTVYLQMNSLKPEDTAVYYCARGYGWWLGYSSRYDYWGQGTQVTVSS”, the “polyreactivity (PSR sort gate)” value is on record as “high polyreactivity”.

For “QVQLVESGGGLVQAGGSLRLSCAASGRILTKYAMGWYRQAPGKERELVAAISDSGTGTYYADSVKGRFTISRDNAKNTVYLQMNSLKPEDTAVYYCHAQTRRTRTYHGHKYGYWGQGTQVTVSW”, the “polyreactivity (PSR sort gate)” value is on record as “high polyreactivity”.

On to “QVQLVESGGGLVQAGGSLRLSCAASGRILTSNAMGWYRQAPGKERELVAAISWSGGSTYYADSVKGRFTISRDNAKNTVYLQMNSLKPEDTAVYYCNADDTPVPSIRFDYWGQGTQVTVSS”, for which the “polyreactivity (PSR sort gate)” value is “low polyreactivity”.

Consider “QVQLVESGGGLVQAGGSLRLSCAASGRILTSYARGWYRQAPGKVRELVAAISYVCGSTDYADSVKGRFTISRDNAKNTVYLQMNSLKPEDTAVYYCAAKVRYYLSLRGSTTRRDDYYWGQGTQVTVSS”, for which the “polyreactivity (PSR sort gate)” value was “low polyreactivity”.

With “QVQLVESGGGLVQAGGSLRLSCAASGRILTYNAMGWYRQAPGKERELVATISARGSRTYYADSVKGRFTISRDNAKNTVYLQMNSLKPEDTAVYYCNAAVGYYSYSYYTKVGVDYWGQGTQVTVSS”, the “polyreactivity (PSR sort gate)” value is “high polyreactivity”.

As for “QVQLVESGGGLVQAGGSLRLSCAASGRILVFYAMGGYRQAPGIERELVAAISKSVRPTYYADSVKGRFTISRDNAQNTVYLQMNSLKPEDTAVYYCNTRSASDLWPQYGYWGQGTQVTVSS”, the “polyreactivity (PSR sort gate)” value was “low polyreactivity”.

Consider “QVQLVESGGGLVQAGGSLRLSCAASGRILWSYPMGWYRQAPGKEREFVATINRSGGNTHYADSVKGRFTISRDNAKNTVYLQMYSLKPEDTAVYYCAALNLVPYGYQGLRYYYWGQGTQVTVSS”, for which the “polyreactivity (PSR sort gate)” value is “high polyreactivity”.

On to “QVQLVESGGGLVQAGGSLRLSCAASGRILYAYTMGWYRQAPGKERELVATISRSGGNTYYADSVKGRFTISRDNAKNTVYLQMNSLKPEDTAVYYCAVGKYGTQRVKLYQYRYNYWGQGTQVTVSS”, for which the “polyreactivity (PSR sort gate)” value is “high polyreactivity”.

Turning to “QVQLVESGGGLVQAGGSLRLSCAASGRILYGNAMGWYRQAPGKERELVAAIDTSGGSTYYADSVKGRFTISRDNAKNTVYLQMNSLKPEDTAVYYCAVRAYREFLPIVYKWWWERDHWGQGTQVTVSS”, the “polyreactivity (PSR sort gate)” value is recorded as “low polyreactivity”.

“QVQLVESGGGLVQAGGSLRLSCAASGRILYGYAMGWYRQAPGKERELVASITWSGGSTYADSVKGRFTISRDNAKNTVYLQMNSLKPEDTAVYYCATRRGPKWQWLTYGYWGQGTQVTVSS”: the “polyreactivity (PSR sort gate)” value is recorded as “low polyreactivity”.

For the sequence “QVQLVESGGGLVQAGGSLRLSCAASGRILYHYAMGWYRQAPGKERELVAAITFSGDTTYYADSVKGRFTISRDNAKNTVYLQMNSLKPEDTAVYYCAADDYYLGYEYWGQGTQVTVSS”, the “polyreactivity (PSR sort gate)” value is on record as “high polyreactivity”.

Consider “QVQLVESGGGLVQAGGSLRLSCAASGRILYRNAMGWYRQATGKERELVAAITTRGTSTYYADSVKGRFTISRDNAKNTVYLQMNSLKPEDTSVYYCAADSWFSYRGPLYYWGQGTKVTVSS”, for which the “polyreactivity (PSR sort gate)” value is on record as “high polyreactivity”.

Take “QVQLVESGGGLVQAGGSLRLSCAASGRILYRYAMGWYRQAPGKERELVAAITWRGGTTYYADSVKGRFTISRDNAKNTVYLQMNSLKPEYTAVYYCNADWWRTLESDFWGQGTQVTVSS”: the “polyreactivity (PSR sort gate)” value is recorded as “low polyreactivity”.

Consider “QVQLVESGGGLVQAGGSLRLSCAASGRILYSYAMGWYRQAPGKEREFVAAISRSGARTYYADYVKGRFTISRDNAKNTVYLQMNSLKPEDTAVYYCAADDFSTVEYDYWGQGTQVTVSS”, for which the “polyreactivity (PSR sort gate)” value was “low polyreactivity”.

In the case of “QVQLVESGGGLVQAGGSLRLSCAASGRILYTYAMGWYRQAPGKERELVATISSGGGTNYADSVKGRFTISRDNAKNTVYLQMNSLKPEDSAVYYCAARYGYSRGPYYRSDYWGQGTQVTVSS”, the “polyreactivity (PSR sort gate)” value is given as “high polyreactivity”.

“QVQLVESGGGLVQAGGSLRLSCAASGRILYYNVMVWYRQAPGKERELVASNTSVVSTNYADSVKGRFTISRDNAKNTVYLHMNSLKPEDTAVYYCAARYFSGSFSDEIWGMDYWGQGTQVTVSS”: the “polyreactivity (PSR sort gate)” value was “high polyreactivity”.

For “QVQLVESGGGLVQAGGSLRLSCAASGRIRFYARGWYRQAPGKEREFVASITRSGGSTYYADSVKGRFTISRDNAKYTVYLQMNSLKPEDTAVYYCAADDYFHDDYWGQGTQVTVSS”, the “polyreactivity (PSR sort gate)” value was “high polyreactivity”.

Take “QVQLVESGGGLVQAGGSLRLSCAASGRIRNAMGWYRQAPGKERELVAGITWSGGRTYYADSVKGRFTISRDNAKYTVYLQMNSLKPEDTAVYYCAAATPYRYNYWGQGTQVTVSS”: the “polyreactivity (PSR sort gate)” value was “high polyreactivity”.

Take “QVQLVESGGGLVQAGGSLRLSCAASGRIRVQNDMGWYRQAPGKERELVAAIRSDGSPSYSDSVKGRFTISRDNAKNTVYLQMNSLKPEDTAVYYCAARIDWTGGEYDYWGQGTQVTVSS”: the “polyreactivity (PSR sort gate)” value is recorded as “low polyreactivity”.

With “QVQLVESGGGLVQAGGSLRLSCAASGRISAYNAMGWYRQAPGKERELVAGISTRTGSTYYADSVKGRFTISRDNAKNTVYLQMNSLKPEDTAVYYGAAYFWGVYFFGMDYWGQGTQVTVSS”, the “polyreactivity (PSR sort gate)” value is “low polyreactivity”.

Consider “QVQLVESGGGLVQAGGSLRLSCAASGRISDVYVMGWYRQAPGKERELVAAITWSGGDTYYADSVKGRFTISRDNAKNTVYLQMNSLNPEDTAVYYCNADTGKWGGNGWYEFDYWGQGTQVTVSS”, for which the “polyreactivity (PSR sort gate)” value was “low polyreactivity”.

Consider “QVQLVESGGGLVQAGGSLRLSCAASGRISFINAMGWYRQAPGKEREFVAGITTDGGSTYYADSVKGRFTISRDNAKNTVYLQMNSLKPEDTAVYYCAAEGSVWYVYWGDIYDYWGQGTQVTVSS”, for which the “polyreactivity (PSR sort gate)” value is reported as “low polyreactivity”.

Regarding “QVQLVESGGGLVQAGGSLRLSCAASGRISLSNAMGWYRQAPGKEREFVAAITKRSDRTYYADSVKGRFTISRDNAKNTVYLQMNSLKPEDRAVYYCAAKPLFGTRDDYWGQGTQVTVSS”, the “polyreactivity (PSR sort gate)” value was “low polyreactivity”.

In the case of “QVQLVESGGGLVQAGGSLRLSCAASGRISLSNAMGWYRQAPGKEREFVAAITKRSDRTYYADSVKGRFTISRDNAKNTVYLQMNSLKPEDTAVYYCAAKPLFGTRDEYWGQGTQVTVSS”, the “polyreactivity (PSR sort gate)” value is listed as “low polyreactivity”.

Turning to “QVQLVESGGGLVQAGGSLRLSCAASGRISPNNAMGWYIPAPGKERELVAAITASGGTTYYADSVKGRFTISRDNAKYTVYLQMNSLKPEDSAVYYCAAAVWYRGWYRYDYWGQGTQVTVSS”, the “polyreactivity (PSR sort gate)” value was “low polyreactivity”.

Consider “QVQLVESGGGLVQAGGSLRLSCAASGRISQGYAMGWYRQAPGKERELVPGISRSGGSTYYADSVKGRFTISPDNAKNTVYLQMHSLKPEDTAVYYCAAQSWYGFPNYYWGQGSQVTVSS”, for which the “polyreactivity (PSR sort gate)” value is “high polyreactivity”.

For “QVQLVESGGGLVQAGGSLRLSCAASGRISQSNAMGWYRQAPGKERELVAAISWRGGSTYYADSVKGRFTISRDNAKNTVYLQMNSLKPEDTAVYYCAVRGKYDRHYYWGQGTQVTVSS”, the “polyreactivity (PSR sort gate)” value is “high polyreactivity”.

Consider “QVQLVESGGGLVQAGGSLRLSCAASGRISRLNAMGWYRQAPGKERELVATISGRGGGTYYADSVKGRFTISRDNAKNTVYLQMNSLKPEDTAVYYCNRRWFTRYDYWGQGTQVTVSS”, for which the “polyreactivity (PSR sort gate)” value is “high polyreactivity”.

In the case of “QVQLVESGGGLVQAGGSLRLSCAASGRISRTNAMGWYRQAPGKERELVATITRGGNTNYADSVKGRFTISRDNAKNTVYLQMNSLKPEDTAVYYCAALGRYLRTYRGYVWQFDSWGQGTQVTVSS”, the “polyreactivity (PSR sort gate)” value was “high polyreactivity”.

As to “QVQLVESGGGLVQAGGSLRLSCAASGRISSYYAMGWYRQAPGKEREFVAAITRSSGSTYYADSVKGRFTISRDNAKNTVYLQMNSLKPEDTAVYYCAADYYWTTFSRFDYWGQGTQVTVSS”, the “polyreactivity (PSR sort gate)” value was “low polyreactivity”.

For “QVQLVESGGGLVQAGGSLRLSCAASGRISVNYAMGWYRQAPGKERELVAGITSRGGSTYYADSVKGRFTISRDNAKNTVYLQMNSLKPEDTAVYYCAARWGGLWYYYWGQGTQVTVSS”, the “polyreactivity (PSR sort gate)” value was “high polyreactivity”.

For the sequence “QVQLVESGGGLVQAGGSLRLSCAASGRISVYYAMGWYRQGPGKERELVAAISWRGSTYYADSVKGRFTISRDYAKNTVYIQMNSQKPEDTAVYNSAARSTGYYGRFYYWGQGTQVTVSS”, the “polyreactivity (PSR sort gate)” value is reported as “high polyreactivity”.

In the case of “QVQLVESGGGLVQAGGSLRLSCAASGRITYYAMGWYRQAPGKERELVAVISWSGSSTNYADSVKGRFTISRDNAKNTVYLQMNSLKPEDTAVYFCAAENAVTGTDGEYYYWGQGTQVTVSS”, the “polyreactivity (PSR sort gate)” value is “high polyreactivity”.

For the sequence “QVQLVESGGGLVQAGGSLRLSCAASGRIVARNAMRWYSQAPGKERELVGAITYSGGSTYYADSVKGRFTISRDNAKNTVYLPMISLKPEDTAVYYCAAETSKRGRRYYYWGQGTQVTVSS”, the “polyreactivity (PSR sort gate)” value was “high polyreactivity”.

Turning to “QVQLVESGGGLVQAGGSLRLSCAASGRIVGINVMGWYRQAPGKERELVAAISYRTGSTYYADSVKGRFTISRDNAKNTVYLQMNSLKPEDTAVYYCDAQRRIRTAWYDYWGQGTQVTVSS”, the “polyreactivity (PSR sort gate)” value was “high polyreactivity”.

As for “QVQLVESGGGLVQAGGSLRLSCAASGRIVNFYAMGWYRQAPGKEREFVAAISWSGGSTSYADSVKGRFTISRDTAKKTDYLQMNSLKPEDTAVSYCAVRWSSRSRRYNYWGQGTQVTVSS”, the “polyreactivity (PSR sort gate)” value is on record as “high polyreactivity”.

For the origin of these results see the nanobody polyreactivity screen of Harvey et al. (2022).
